Test results published in patent publication US20210253718A1, “FRIZZLED5 PROTEIN-BINDING AGENTS” (Modmab Therapeutics Corporation, priority 2016, published 2021).
Where a chain is given by its changes, count along the chain named.

T1: FZD3 CRD (Homo sapiens, UniProt Q9NPG1)
T1 construct: CRD of FZD1, FZD2, FZD3, FZD4, FZD5, FZD6, FZD7, FZD8, FZD9 or FZD10; GPI anchor signal (C); expressed in transfected cells; host or cells: CHO cells, lentiviral pLenti-puro
T1 sequence (Q9NPG1 23-136 limits assumed): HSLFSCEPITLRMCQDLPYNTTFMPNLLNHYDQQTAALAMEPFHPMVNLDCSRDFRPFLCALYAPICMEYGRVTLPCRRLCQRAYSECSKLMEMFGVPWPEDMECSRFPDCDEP

T2: FZD5 CRD (Homo sapiens, UniProt Q13467)
T2 construct: K29-T156; GPI anchor signal (C); expressed in transfected cells; host or cells: CHO cells, lentiviral pLenti-puro
T2 sequence (Q13467 29-156): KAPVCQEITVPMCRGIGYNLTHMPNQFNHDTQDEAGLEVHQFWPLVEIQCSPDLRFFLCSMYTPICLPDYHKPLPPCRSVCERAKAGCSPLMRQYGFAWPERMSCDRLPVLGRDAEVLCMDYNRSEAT

T3: FZD6 CRD (Homo sapiens, UniProt O60353)
T3 construct: S20-P146; GPI anchor signal (C); expressed in transfected cells; host or cells: CHO cells, lentiviral pLenti-puro
T3 sequence (O60353 20-146): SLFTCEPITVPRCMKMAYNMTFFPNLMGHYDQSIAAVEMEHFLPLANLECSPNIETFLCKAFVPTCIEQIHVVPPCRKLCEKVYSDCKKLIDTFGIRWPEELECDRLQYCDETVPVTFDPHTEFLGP

T4: FZD8 CRD (Homo sapiens, UniProt Q9H461)
T4 construct: K31-D155; GPI anchor signal (C); expressed in transfected cells; host or cells: CHO cells, lentiviral pLenti-puro
T4 sequence (Q9H461 31-155): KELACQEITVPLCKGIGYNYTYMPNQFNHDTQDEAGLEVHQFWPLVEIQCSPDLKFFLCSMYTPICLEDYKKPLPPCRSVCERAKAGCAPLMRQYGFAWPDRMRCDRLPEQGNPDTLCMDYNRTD

T5: FZD9 CRD (Homo sapiens, UniProt O00144)
T5 construct: G35-A161; GPI anchor signal (C); expressed in transfected cells; host or cells: CHO cells, lentiviral pLenti-puro
T5 sequence (O00144 35-161): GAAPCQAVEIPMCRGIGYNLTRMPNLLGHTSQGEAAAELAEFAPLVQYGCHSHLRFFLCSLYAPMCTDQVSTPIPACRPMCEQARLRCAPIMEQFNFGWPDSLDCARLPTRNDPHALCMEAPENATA

B1: Fab-2919: anti-FZD5 Fab with antibody variable region Fv-2919; CDR SEQ ID NOs: 35, 36, 58, 97, 134, 155 (antibody, V domains shown)
VH: EVQLVESGGGLVQPGGSLRLSCAASGFNISYSYIHWVRQAPGKGLEWVASIYSSSGSTSYADSVKGRFTISADTSKNTAYLQMNSLRAEDTAVYYCARGAIDYWGQGTLVTVSS
VL: DIQMTQSPSSLSASVGDRVTITCRASQSVSSAVAWYQQKPGKAPKLLIYSASSLYSGVPSRFSGSRSGTDFTLTISSLQPEDFATYYCQQWYSSGHVLITFGQGTKVEIK
B2: Fab-2924: anti-FZD5 Fab with antibody variable region Fv-2924; CDR SEQ ID NOs: 35, 36, 63, 101, 139, 153 (antibody, V domains shown)
VH: B1 VH with S54Y, S55Y, G56S, I101L
VL: DIQMTQSPSSLSASVGDRVTITCRASQSVSSAVAWYQQKPGKAPKLLIYSASSLYSGVPSRFSGSRSGTDFTLTISSLQPEDFATYYCQQWYSGHSLITFGQGTKVEIK
B3: Fab-2923: anti-FZD5 Fab with antibody variable region Fv-2923; CDR SEQ ID NOs: 35, 36, 62, 100, 138, 162 (antibody, V domains shown)
VH: B1 VH with I29L, S30Y, S32Y, I34M, I101M
VL: B2 VL with S93G, G94Y, H95S, S96A
B4: Fab-2918: anti-FZD5 Fab with antibody variable region Fv-2918; CDR SEQ ID NOs: 35, 36, 57, 96, 133, 169 (antibody, V domains shown)
VH: EVQLVESGGGLVQPGGSLRLSCAASGFNLSYSSIHWVRQAPGKGLEWVASIYSSYSSTSYADSVKGRFTISADTSKNTAYLQMNSLRAEDTAVYYCARFGYWAIDYWGQGTLVTVSS
VL: DIQMTQSPSSLSASVGDRVTITCRASQSVSSAVAWYQQKPGKAPKLLIYSASSLYSGVPSRFSGSRSGTDFTLTISSLQPEDFATYYCQQAFGASLFTFGQGTKVEIK
B5: Fab-2921: anti-FZD5 Fab with antibody variable region Fv-2921; CDR SEQ ID NOs: 35, 36, 60, 98, 136, 162 (antibody, V domains shown)
VH: B1 VH with S32Y, S53P, I101M
VL: B4 VL with A91W, F92Y, G93A, A94G, F97I
B6: Fab-2925: anti-FZD5 Fab with antibody variable region Fv-2925; CDR SEQ ID NOs: 35, 36, 64, 102, 140, 172 (antibody, V domains shown)
VH: B4 VH with I34M, S53P, S56G, S59Y, F99Y, W102F, A103G, I104L
VL: B2 VL with W91A, Y92W, S93V, G94Y, H95A, I98F
B7: Fab-2920: anti-FZD5 Fab with antibody variable region Fv-2920; CDR SEQ ID NOs: 35, 36, 59, 98, 135, 170 (antibody, V domains shown)
VH: B1 VH with S32Y, S53P, A100G, I101M
VL: B4 VL with A91W, G93A, A94G, S95A, F97I
B8: Fab-2922: anti-FZD5 Fab with antibody variable region Fv-2922; CDR SEQ ID NOs: 35, 36, 61, 99, 137, 171 (antibody, V domains shown)
VH: EVQLVESGGGLVQPGGSLRLSCAASGFNIYSSYMHWVRQAPGKGLEWVASISPYSGYTSYADSVKGRFTISADTSKNTAYLQMNSLRAEDTAVYYCARTVRGSKKPYFSGWAMDYWGQGTLVTVSS
VL: B2 VL with W91S, Y92F, S93V, G94Y, H95P, S96Y

Molecular target: T6, FZD1 CRD (Homo sapiens, UniProt Q9UP38)
T6 construct: D112-P238; GPI anchor signal (C); expressed in transfected cells; host or cells: CHO cells, lentiviral pLenti-puro
Test: Immunofluorescence of anti-FZD5 Fab binding to CHO cells overexpressing Frizzled CRD
Parameters: key: −: no binding; +: very weak binder; ++: weak binder; +++: good binder; ++++: very good binder
Summary of the method: (§1)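 Using immunofluorescence plus flow cytometry, we examine Fab binding to surface CRDs of individual Frizzled receptors, each expressed on CHO cells as a myc-GPI fusion from a lentiviral vector.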

Immunofluorescence binding, Frizzled CRD overexpressed on CHO cells: FZD1	Molecule
−	B1
−	B2
−	B3
−	B4
−	B5
++	B6
−	B7
−	B8

Molecular target: T1, FZD3 CRD
Test: as above
Parameters: key: −: no binding; +: very weak binder; ++: weak binder; +++: good binder; ++++: very good binder
Summary of the method: as §1

Immunofluorescence binding, Frizzled CRD overexpressed on CHO cells: FZD3	Molecule
−	B1
−	B2
−	B3
−	B4
−	B5
−	B6
−	B7
−	B8

Molecular target: T2, FZD5 CRD
Test: as above
Parameters: key: −: no binding; +: very weak binder; ++: weak binder; +++: good binder; ++++: very good binder
Summary of the method: as §1

Immunofluorescence binding, Frizzled CRD overexpressed on CHO cells: FZD5	Molecule
++++	B1
++++	B2
++++	B3
++++	B4
++++	B5
++++	B6
++++	B7
++++	B8

Molecular target: T3, FZD6 CRD
Test: as above
Parameters: key: −: no binding; +: very weak binder; ++: weak binder; +++: good binder; ++++: very good binder
Summary of the method: as §1

Immunofluorescence binding, Frizzled CRD overexpressed on CHO cells: FZD6	Molecule
−	B1
−	B2
−	B3
−	B4
−	B5
−	B6
−	B7
−	B8

Molecular target: T7, FZD7 CRD (Homo sapiens, UniProt O75084)
T7 construct: D45-S169; GPI anchor signal (C); expressed in transfected cells; host or cells: CHO cells, lentiviral pLenti-puro
Test: as above
Parameters: key: −: no binding; +: very weak binder; ++: weak binder; +++: good binder; ++++: very good binder
Summary of the method: as §1

Immunofluorescence binding, Frizzled CRD overexpressed on CHO cells: FZD7	Molecule
−	B1
−	B2
−	B3
+	B4
−	B5
++	B6
−	B7
−	B8

Molecular target: T4, FZD8 CRD
Test: as above
Parameters: key: −: no binding; +: very weak binder; ++: weak binder; +++: good binder; ++++: very good binder
Summary of the method: as §1

Immunofluorescence binding, Frizzled CRD overexpressed on CHO cells: FZD8	Molecule
++	B1
+	B2
+	B3
+	B4
+	B5
−	B6
+	B7
+	B8

Molecular target: T5, FZD9 CRD
Test: as above
Parameters: key: −: no binding; +: very weak binder; ++: weak binder; +++: good binder; ++++: very good binder
Summary of the method: as §1

Immunofluorescence binding, Frizzled CRD overexpressed on CHO cells: FZD9	Molecule
−	B1
−	B2
−	B3
−	B4
−	B5
−	B6
−	B7
−	B8
